Earlier results on 2 substances are cited in article PMC4620043.

The Kd is the constant that tells how readily two partners part at equilibrium.

Data set [1] addresses fibrin (Homo sapiens) (UniProt P02671).
For data set [2] the target is unchanged. The source holds these as a separate data set.

Like-named read-outs stand apart in the source and are kept apart here.

For CREKA peptide, the Kd with fibrin (Homo sapiens) [1] is 6 µM.
Turning to GPRPP peptide, the Kd in the data set with fibrin (Homo sapiens) [2] is 0.008 µM.
